Assay results published in patent publication US20190041402A1 (GOVERNING COUNCIL OF THE UNIVERSITY OF TORONTO, published 2019).

Experiments:
mouse αKlotho [1] = biological target: T1, mouse αKlotho (mouse, UniProt O35082 35-982); assay: SPR (ProteOn XPR36), Fab captured by anti-IgG(H+L), mouse αKlotho injected in serial dilutions, Langmuir fit [continued) C.]
T1 construct: also called Mu aKL
T1 sequence (looked up): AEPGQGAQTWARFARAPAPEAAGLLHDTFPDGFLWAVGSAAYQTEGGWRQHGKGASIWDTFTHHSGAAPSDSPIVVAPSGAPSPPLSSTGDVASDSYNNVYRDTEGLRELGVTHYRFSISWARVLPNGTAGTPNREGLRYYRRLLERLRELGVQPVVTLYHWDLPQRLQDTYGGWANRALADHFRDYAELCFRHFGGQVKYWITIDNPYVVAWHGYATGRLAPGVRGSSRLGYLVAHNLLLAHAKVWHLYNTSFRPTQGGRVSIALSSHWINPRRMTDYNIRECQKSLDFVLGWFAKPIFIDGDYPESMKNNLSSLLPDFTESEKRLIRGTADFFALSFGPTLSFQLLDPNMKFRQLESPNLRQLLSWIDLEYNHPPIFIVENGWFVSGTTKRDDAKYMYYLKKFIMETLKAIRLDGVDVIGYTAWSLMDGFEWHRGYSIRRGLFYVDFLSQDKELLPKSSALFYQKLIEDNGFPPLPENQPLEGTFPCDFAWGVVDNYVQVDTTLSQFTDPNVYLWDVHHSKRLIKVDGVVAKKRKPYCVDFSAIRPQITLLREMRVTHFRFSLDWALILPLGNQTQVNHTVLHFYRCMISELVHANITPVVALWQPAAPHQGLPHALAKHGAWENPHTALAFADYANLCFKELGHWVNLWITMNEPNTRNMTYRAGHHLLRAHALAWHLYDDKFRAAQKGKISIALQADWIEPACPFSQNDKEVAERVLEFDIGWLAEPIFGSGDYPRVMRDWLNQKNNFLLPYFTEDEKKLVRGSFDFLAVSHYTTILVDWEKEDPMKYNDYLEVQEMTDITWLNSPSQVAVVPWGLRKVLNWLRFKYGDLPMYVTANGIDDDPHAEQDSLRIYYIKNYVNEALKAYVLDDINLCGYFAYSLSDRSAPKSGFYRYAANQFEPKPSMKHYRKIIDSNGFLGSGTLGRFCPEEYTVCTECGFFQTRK
Method: (§1) Estimated affinities against human and mouse antigen for select αKlotho Fabs were obtained by surface plasmon resonance on a ProteOn XPR36 (FIG. 17). Fabs were captured using an anti-IgG(H+L) antibody and serial dilutions of αKlotho were injected. Binding curves were fitted to the Langmuir model. (A) Determined Kon, Koff and KD values. (B) and (C) Binding curves for human and mouse antigen respectively.

[2] = biological target: T2, soluble human αKlotho (recombinant) (human, UniProt Q9UEF7 34-981); assay: SPR (ProteOn XPR36), Fab captured by anti-IgG(H+L), human αKlotho injected in serial dilutions, Langmuir fit [continued) B.]
T2 construct: also called Hu aKL; recombinant human αKlotho
T2 sequence (looked up): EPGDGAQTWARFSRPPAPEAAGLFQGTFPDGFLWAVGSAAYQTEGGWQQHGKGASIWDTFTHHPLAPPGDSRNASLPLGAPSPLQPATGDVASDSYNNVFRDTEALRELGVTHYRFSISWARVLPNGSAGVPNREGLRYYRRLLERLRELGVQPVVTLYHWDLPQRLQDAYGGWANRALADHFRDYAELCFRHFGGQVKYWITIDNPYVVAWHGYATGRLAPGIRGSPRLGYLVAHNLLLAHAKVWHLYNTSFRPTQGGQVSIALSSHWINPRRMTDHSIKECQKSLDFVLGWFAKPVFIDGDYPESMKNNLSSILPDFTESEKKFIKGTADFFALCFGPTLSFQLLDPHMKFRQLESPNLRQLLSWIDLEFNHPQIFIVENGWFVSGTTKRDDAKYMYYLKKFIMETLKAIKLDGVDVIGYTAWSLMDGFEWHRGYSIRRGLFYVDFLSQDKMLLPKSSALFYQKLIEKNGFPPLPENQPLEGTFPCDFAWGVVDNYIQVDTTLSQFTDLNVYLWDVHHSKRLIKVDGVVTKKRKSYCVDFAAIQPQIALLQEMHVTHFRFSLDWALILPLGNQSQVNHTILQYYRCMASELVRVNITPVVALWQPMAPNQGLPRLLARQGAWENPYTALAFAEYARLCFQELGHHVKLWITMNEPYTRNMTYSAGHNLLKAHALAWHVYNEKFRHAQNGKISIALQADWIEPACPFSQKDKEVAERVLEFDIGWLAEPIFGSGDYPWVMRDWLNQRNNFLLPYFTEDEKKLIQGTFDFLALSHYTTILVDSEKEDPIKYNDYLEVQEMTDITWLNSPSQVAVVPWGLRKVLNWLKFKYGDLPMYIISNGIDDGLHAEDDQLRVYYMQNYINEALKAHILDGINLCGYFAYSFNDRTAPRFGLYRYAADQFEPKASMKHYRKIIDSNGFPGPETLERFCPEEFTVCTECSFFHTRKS
Method: as §1

[3] = biological target: T3, extracellular domain (ECD) of human αKlotho, amino acids E34-S981 with C-terminal 6-His tag (R&D Systems … (human, UniProt Q9UEF7 34-981)); assay: SPR, Fab captured by anti-H+L IgG, αKlotho injected at 50 to 6.25 ug/ml, Langmuir fit [continued]
T3 construct: range 34-981; also called αKlotho (aa34-981); target antigen
T3 sequence: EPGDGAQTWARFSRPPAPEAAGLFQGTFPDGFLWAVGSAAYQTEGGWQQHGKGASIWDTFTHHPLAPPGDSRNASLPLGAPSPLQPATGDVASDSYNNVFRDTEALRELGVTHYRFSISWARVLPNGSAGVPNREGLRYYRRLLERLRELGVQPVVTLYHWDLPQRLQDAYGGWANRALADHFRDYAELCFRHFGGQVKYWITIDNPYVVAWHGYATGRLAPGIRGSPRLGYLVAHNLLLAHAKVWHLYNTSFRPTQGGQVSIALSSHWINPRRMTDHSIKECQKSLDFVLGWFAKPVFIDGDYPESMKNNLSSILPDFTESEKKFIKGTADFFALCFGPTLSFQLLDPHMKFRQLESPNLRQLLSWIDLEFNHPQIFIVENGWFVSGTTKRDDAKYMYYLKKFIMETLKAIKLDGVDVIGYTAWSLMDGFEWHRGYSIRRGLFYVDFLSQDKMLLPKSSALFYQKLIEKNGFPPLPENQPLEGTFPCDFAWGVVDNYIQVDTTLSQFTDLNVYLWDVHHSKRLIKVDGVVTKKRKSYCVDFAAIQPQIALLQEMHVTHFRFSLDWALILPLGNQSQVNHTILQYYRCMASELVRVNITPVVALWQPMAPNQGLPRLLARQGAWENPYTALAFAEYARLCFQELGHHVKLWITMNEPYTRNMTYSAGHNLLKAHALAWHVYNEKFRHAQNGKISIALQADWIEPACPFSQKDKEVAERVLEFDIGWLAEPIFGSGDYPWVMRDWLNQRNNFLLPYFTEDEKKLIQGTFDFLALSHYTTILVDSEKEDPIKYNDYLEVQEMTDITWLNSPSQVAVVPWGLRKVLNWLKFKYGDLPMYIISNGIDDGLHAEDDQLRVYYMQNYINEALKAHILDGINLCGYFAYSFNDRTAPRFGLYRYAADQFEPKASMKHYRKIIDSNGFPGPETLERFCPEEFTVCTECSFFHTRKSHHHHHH
Method: (§2) Affinity estimates for each of the antibodies were determined by surface plasmon resonance (SPR). Fabs were immobilized using an anti-H+L antibody and serial dilutions of αKlotho were injected.

mouse αKlotho [4] = biological target: T1, mouse αKlotho; assay: SPR (ProteOn XPR36), Fab captured by anti-IgG(H+L), mouse αKlotho injected in serial dilutions, Langmuir fit
Method: as §1

[5] = biological target: T2, soluble human αKlotho (recombinant); assay: SPR (ProteOn XPR36), Fab captured by anti-IgG(H+L), human αKlotho injected in serial dilutions, Langmuir fit
Method: as §1

[6] = biological target: T3, extracellular domain (ECD) of human …; assay: SPR, Fab captured by anti-H+L antibody, αKlotho injected
Method: as §2

rat αKlotho (endogenous) = biological target: T4, rat αKlotho (endogenous) (rat, UniProt Q9Z2Y9 35-983); assay: immunohistochemistry, unfixed frozen rat parathyroid tissue
T4 sequence (looked up): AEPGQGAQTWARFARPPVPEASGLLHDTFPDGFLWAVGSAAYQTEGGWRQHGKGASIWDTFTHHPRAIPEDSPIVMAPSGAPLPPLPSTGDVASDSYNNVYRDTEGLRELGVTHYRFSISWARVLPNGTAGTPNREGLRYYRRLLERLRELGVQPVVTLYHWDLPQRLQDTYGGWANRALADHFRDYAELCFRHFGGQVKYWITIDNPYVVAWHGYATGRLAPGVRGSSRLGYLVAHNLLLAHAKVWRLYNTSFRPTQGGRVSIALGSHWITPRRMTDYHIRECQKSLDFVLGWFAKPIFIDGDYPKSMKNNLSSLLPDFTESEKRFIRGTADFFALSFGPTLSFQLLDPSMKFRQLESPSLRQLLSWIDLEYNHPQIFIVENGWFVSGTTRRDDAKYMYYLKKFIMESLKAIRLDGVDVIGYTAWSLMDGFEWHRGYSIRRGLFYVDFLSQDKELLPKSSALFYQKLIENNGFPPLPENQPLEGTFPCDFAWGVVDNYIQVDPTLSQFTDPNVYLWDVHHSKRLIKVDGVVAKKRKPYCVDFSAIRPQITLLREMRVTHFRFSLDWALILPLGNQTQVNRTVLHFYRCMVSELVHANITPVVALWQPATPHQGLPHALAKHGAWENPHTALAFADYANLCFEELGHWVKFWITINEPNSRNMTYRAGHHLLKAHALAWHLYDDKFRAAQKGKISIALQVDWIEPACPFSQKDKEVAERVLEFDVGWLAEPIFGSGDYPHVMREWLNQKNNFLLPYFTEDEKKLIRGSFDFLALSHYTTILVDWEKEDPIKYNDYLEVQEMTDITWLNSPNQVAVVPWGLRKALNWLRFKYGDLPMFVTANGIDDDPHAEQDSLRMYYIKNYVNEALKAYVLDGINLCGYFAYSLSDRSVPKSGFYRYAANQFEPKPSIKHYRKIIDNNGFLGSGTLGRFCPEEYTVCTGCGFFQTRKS
Method: For labeling, sections were blocked (PBS, 1.5% BSA, 10% goat serum; 40 min) and incubated with the primary antibody sb106 ([…] in blocking solution; 4° C. overnight). After washing (PBS), sections were incubated with the Alexa 546 goat anti-human IgG (1:800 dilution, Invitrogen) for 1 hour at room temperature. After additional washes with PBS, the sections were fixed with 4% paraformaldehyde in PBS, washed with PBS, and mounted and visualized with a Zeiss LSM510 microscope.
Sb106 was highly reactive against αKlotho under native conditions. Immunoblot signals under denaturing conditions against mouse, rat, and human kidney tissue were weak, but in samples from transgenic mice overexpressing αKlotho [79], sb106-Fab detected a band corresponding to the full-length extracellular domain of αKlotho (FIG. 2A). In cultured cells, sb106-Fab was not able to detect αKlotho in immunoblots under denaturing conditions with lysates from NRK cells expressing native αKlotho but it was able to detect overexpressed antigen in cell lysates from HEK293 cells transfected with αKlotho (FIG. 2B). […] Cells were then incubated with sb106-Fab (5 μg/ml in 1% BSA in PBS) for 1 hr. […]

B1: anti-αKlotho Fab clone 4811 (Fab, V domains shown)
VH: EVQLVESGGGLVQPGGSLRLSCAASGFNLYYSYMHWVRQAPGKGLEWVASIYSSSSYTSYADSVKGRFTISADTSKNTAYLQMNSLRAEDTAVYYCARSPSWWVSYHSALDYWGQGTLVTVSS
VL: DIQMTQSPSSLSASVGDRVTITCRASQSVSSAVAWYQQKPGKAPKLLIYSASSLYSGVPSRFSGSRSGTDFTLTISSLQPEDFATYYCQQGYALFTFGQGTKVEIKR
notes: Fab (also as Fab-phage); FLAG tag on light chain; also called sb180
With B1 as the binder, how does the Kd (mouse αKlotho [1]) read?
The Kd was 10.3 nM.

And the koff (mouse αKlotho [1])?
Its koff is 0.00276 s⁻¹.

What about the kon (mouse αKlotho [1]) of the same binder?
The kon was 268000 M⁻¹ s⁻¹.

And the Kd [2]?
Its Kd is 1.48 nM.

And the koff [2]?
The koff was 0.000516 s⁻¹.

What about the kon [2] of the same binder?
Its kon is 349000 M⁻¹ s⁻¹.

And the Kd [3]?
Its Kd is 1.13 nM.

And the koff [3]?
The koff was 0.000609 s⁻¹.

What about the kon [3] of the same binder?
The kon was 537000 M⁻¹ s⁻¹.

What about the Kd (mouse αKlotho [4]) of the same binder?
The Kd was 19.9 nM.

What about the koff (mouse αKlotho [4]) of the same binder?
Its koff is 0.00545 s⁻¹.

What about the kon (mouse αKlotho [4]) of the same binder?
Its kon is 273000 M⁻¹ s⁻¹.

And the Kd [5]?
The Kd was 1.48 nM.

What about the koff [5] of the same binder?
The koff was 0.000516 s⁻¹.

And the kon [5]?
Its kon is 349000 M⁻¹ s⁻¹.

What about the Kd [6] of the same binder?
The Kd was 2.3 nM.

B2: sb106 IgG (antibody, V domains shown)
VH: EVQLVESGGGLVQPGGSLRLSCAASGFNISYYSIHWVRQAPGKGLEWVAYISPSYGYTSYADSVKGRFTISADTSKNTAYLQMNSLRAEDTAVYYCARYYVYASHGWAGYGMDYWGQGTLVTVSS
VL: DIQMTQSPSSLSASVGDRVTITCRASQSVSSAVAWYQQKPGKAPKLLIYSASSLYSGVPSRFSGSRSGTDFTLTISSLQPEDFATYYCQQAGYSPITFGQGTKVEIKR
notes: also called sb106 (48) full length IgG
Does B2 bind (rat αKlotho (endogenous))?
Result: binds
